Experimental data taken from paper PMC2557009, “YB-1 promotes microtubule assembly in vitro through interaction with tubulin and microtubules” (BMC Biochemistry, 2008).

Molecular target: the molecule itself
Assay: cross-linking; zero length cross-linker EDC (5 mM) / sulfo-NHS (12 mM); 1 μM tubulin and 0.3, 0.5, 0.8 or 1.2 μM YB-1, or each alone; 50 mM MES-KOH pH 6.8, 1 mM MgCl2, 1 mM EGTA, 0.5 mM GTP, 1 h at 30°C; SDS-PAGE, Coomassie and Western blot

B1: YB-1 (natural protein)
chain: not shown
notes: source: E. coli BL21(DE3), pET 3-1-YB-1 construct, purified (heparin-Sepharose, Sephacryl S-200)
- stoichiometry N: 2
